Source: paper PMC12309418 (2025)

Columns and labels:
[1] = target: T1, PLS2 RD-ABD1 (a.a. 1–385) (human, UniProt P13796 1-385); experiment: FP; pH 7.0
T1 chain: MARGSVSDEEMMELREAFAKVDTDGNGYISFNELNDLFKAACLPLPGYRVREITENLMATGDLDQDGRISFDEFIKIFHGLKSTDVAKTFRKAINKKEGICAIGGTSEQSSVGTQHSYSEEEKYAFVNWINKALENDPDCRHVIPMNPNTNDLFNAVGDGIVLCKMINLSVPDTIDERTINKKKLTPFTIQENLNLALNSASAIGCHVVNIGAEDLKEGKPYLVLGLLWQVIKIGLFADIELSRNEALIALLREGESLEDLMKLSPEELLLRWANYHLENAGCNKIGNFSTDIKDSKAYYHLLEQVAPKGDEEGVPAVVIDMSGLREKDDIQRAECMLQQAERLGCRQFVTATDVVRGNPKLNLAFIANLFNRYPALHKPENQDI

[2] = target: T1, PLS2 RD-ABD1 (a.a. 1–385); experiment: FP; pH 8.0

Kd [1]: 4.5 nM
Kd [2]: 8.7 nM
B1: fluorescein-maleimide labeled PLS2 ABD2 (FM-ABD2) (domain or fragment)
chain: PENQDIDWGALEGETREERTFRNWMNSLGVNPRVNHLYSDLSDALVIFQLYEKIKVPVDWNRVNKPPYPKLGGNMKKLENCNYAVELGKNQAKFSLVGIGGQDLNEGNRTLTLALIWQLMRRYTLNILEEIGGGQKVNDDIIVNWVNETLREAKKSSSISSFKDPKISTSLPVLDLIDAIQPGSINYDLLKTENLNDDEKLNNAKYAISMARKIGARVYALPEDLVEVNPKMVMTVFACLMGKGM
modifications: fluorescein maleimide (FM) label; labeled residue not stated
